Literature values as cited in PMC3563353.
pKi: −log10 of the molar value.

Target: 4-phenylbutyryl-His-DPhe-Arg-Trp-Gly-Lys
Test: competition binding

MC1R, sequence (Q01726 whole entry): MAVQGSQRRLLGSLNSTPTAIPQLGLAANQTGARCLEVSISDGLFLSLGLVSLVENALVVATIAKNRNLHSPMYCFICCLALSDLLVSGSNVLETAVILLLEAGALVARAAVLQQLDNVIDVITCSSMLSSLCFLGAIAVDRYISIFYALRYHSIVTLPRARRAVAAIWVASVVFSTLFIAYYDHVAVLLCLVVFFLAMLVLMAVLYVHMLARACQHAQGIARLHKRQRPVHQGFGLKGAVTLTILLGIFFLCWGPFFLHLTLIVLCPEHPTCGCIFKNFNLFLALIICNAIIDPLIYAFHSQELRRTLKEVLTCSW
MC5R, sequence (P33032 whole entry): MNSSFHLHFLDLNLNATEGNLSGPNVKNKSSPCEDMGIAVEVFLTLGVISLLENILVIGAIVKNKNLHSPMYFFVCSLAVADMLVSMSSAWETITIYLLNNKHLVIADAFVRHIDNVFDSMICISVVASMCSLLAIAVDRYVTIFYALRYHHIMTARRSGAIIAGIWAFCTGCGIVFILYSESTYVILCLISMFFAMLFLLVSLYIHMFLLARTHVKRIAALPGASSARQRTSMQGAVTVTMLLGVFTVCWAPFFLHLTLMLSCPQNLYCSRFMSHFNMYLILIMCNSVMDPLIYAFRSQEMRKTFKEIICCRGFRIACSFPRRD
MC4R, sequence (P32245 whole entry): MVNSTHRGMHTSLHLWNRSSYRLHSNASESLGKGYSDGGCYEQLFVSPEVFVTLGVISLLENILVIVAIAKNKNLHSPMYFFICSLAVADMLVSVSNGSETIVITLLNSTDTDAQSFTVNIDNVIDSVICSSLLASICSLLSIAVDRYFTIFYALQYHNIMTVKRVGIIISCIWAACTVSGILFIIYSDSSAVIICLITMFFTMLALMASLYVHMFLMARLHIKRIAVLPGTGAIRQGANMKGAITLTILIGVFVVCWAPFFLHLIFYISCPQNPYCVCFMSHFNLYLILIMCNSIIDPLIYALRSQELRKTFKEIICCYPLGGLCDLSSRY

| pKi | Substance |
| --- | --- |
| 9.62 | MC1R (from UniProt Q01726) |
| 7.34 | MC5R (from UniProt P33032) |
| 6.60 | MC4R (from UniProt P32245) |
